Target: mG-CSF (recombinant murine G-CSF, R&D Systems Cat #414-CS) (mouse) (UniProt P09920)
Test: cell-based or functional assay

UniProt P09920, sequence (P09920 31-208 limits assumed): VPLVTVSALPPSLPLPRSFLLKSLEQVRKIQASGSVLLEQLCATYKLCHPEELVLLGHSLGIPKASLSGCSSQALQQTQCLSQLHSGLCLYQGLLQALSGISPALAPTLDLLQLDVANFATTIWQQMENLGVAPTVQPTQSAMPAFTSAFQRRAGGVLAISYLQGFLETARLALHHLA

Row | Substance | inhibition of mG-CSF proliferation of hG-CSFR BaF3 cells (MTS reduction, 48 hours), IC50
1 | soluble hG-CSFR-Fc protein (from UniProt Q99062 25-627) (Fc fusion) | 22 pM
2 | Anti-G-CSF (MAB414) (antibody) | 10 pM

— patent publication US20110110934A1
